Measured values: publication PMC10615203, “The 14-3-3 protein OsGF14f interacts with OsbZIP23 and enhances its activity to confer osmotic stress tolerance in rice”

T1: GST-OsbZIP23 (Oryza sativa, UniProt Q6Z312)
T1 sequence: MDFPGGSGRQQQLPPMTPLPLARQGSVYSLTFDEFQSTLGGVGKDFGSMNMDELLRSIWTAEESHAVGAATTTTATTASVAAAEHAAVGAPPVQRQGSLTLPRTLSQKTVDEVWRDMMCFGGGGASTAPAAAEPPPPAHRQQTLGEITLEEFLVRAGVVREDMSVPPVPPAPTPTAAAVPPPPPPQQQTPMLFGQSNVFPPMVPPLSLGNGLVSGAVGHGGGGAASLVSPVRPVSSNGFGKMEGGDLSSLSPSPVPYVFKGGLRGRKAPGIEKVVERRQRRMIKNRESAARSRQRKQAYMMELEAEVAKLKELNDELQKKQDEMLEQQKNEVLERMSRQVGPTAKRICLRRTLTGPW

T2: GST-OsGF14f (Oryza sativa, UniProt Q06967 1-260)
T2 sequence: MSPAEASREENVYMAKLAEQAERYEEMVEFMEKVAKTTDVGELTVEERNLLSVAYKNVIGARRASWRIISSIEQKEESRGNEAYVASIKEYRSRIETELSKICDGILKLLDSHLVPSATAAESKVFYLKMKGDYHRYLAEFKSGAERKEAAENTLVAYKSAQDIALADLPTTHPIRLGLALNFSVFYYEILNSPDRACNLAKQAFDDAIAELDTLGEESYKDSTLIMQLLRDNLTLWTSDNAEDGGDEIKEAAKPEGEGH


How the values were obtained:
GST-OsbZIP23 = target: T1, GST-OsbZIP23; assay: EMSA; EMSA kit (Viagene) binding buffer (composition not given), room temperature, 20 min; 6% native PAGE; conditions: protein: recombinant; tags: GST (N-terminal, pGEX-4T-3); chain copies: 2; label: 5' biotin; blunt
GST-OsGF14f = target: T2, GST-OsGF14f; assay: as above; conditions: protein: recombinant; tags: GST (N-terminal, pGEX-4T-3); chain copies: 2; label: 5' biotin; blunt

Binder | binding result (GST-OsbZIP23) | binding result (GST-OsGF14f)
OsLEA3-2 promoter probe P1 (dsDNA) DNA 1: ACCCGAGGCACACGTGTCCACCTCACCGGGGCACGTGTCGCGCCGT DNA 2: ACGGCGCGACACGTGCCCCGGTGAGGTGGACACGTGTGCCTCGGGT | binds | no binding
OsGF14f promoter probe (dsDNA) DNA 1: TGGCGCCTTGCCACGTGCCCCCTCCCT DNA 2: AGGGAGGGGGCACGTGGCAAGGCGCCA | binds | 
